{"source": "paper PMC8538103", "key": {"[1]": {"target": "neuraminidase from A/BrevigMission/1/1918 (H1N1), residues 83 to 468 of the ectodomain, construct pTT5-NA (+SS −TET) (influenza A virus A/BrevigMission/1/1918 (H1N1))", "assay": "crystal structure"}, "[2]": {"target": "neuraminidase from A/BrevigMission/1/1918 (H1N1), residues 83 to 468 of the ectodomain, construct pTT5-NA (+SS −TET) (influenza A virus A/BrevigMission/1/1918 (H1N1))", "assay": "dynamic light scattering; in solution; data not shown"}}}
{"substance": "neuraminidase from A/BrevigMission/1/1918 (H1N1), residues 83 to 468 of the ectodomain, construct pTT5-NA (+SS −TET) (domain or fragment)", "values": [{"measurement": "stoichiometry N", "setting": "[1]", "result": 4}, {"measurement": "stoichiometry N", "setting": "[2]", "result": 4}]}
